Test in all cases: cell-based or functional assay
The target of assay [1] is T1, human ferroportin (SLC40A1) fused in frame with GFP, stably expressed on HEK293 cells (human, UniProt Q9NP59 1-571).
T1 sequence (looked up): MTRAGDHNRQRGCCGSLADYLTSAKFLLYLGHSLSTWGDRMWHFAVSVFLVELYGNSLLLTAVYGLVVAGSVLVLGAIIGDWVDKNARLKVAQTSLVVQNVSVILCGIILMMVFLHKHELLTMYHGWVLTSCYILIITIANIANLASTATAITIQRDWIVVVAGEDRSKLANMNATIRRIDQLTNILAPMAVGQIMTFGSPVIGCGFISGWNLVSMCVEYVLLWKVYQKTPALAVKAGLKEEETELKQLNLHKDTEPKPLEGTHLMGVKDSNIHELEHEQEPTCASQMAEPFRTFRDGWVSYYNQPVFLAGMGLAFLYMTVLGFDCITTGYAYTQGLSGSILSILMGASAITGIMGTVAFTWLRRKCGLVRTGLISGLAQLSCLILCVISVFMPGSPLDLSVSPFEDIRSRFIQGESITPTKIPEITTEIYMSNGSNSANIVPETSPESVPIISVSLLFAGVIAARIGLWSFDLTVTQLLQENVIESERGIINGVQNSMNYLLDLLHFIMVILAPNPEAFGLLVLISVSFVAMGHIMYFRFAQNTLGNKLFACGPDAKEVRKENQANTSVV

Assay [2] deals with T1, human ferroportin (SLC40A1) fused in …. The source holds these as a separate data set.
The target is the same in assay [3]. This is another data set of the same source.

Where two headings read alike, the source gives them in different places. Numbered stars: 1 amine (or outer) side, 2 acyl side, 3 side chain; on linkers, the order of the positions; unused ones are H or OH. Bridge positions count the residues as written; N and C are the ends. Square brackets hold non-standard residues; d marks the D form. Ends that are not written are not given here. * marks the point of attachment. IDA = iminodiacetic acid, O=C(CN(CC(=O)[*:3])[*:1])[*:2]; β3hF = N[C@H](CC(=O)O)Cc1ccccc1; pGlu = O=C1CC[C@@H](C(=O)O)N1; β3hP = O=C(O)C[C@@H]1CCCN1; Isovaleryl = CC(C)CC(=O)* Where only a bound is given, the exact number is not on record here.

B1: Hy-DTHFPRRFGPRSKGWVC-NH2 (peptide)
peptide: H-DTHFPRRFGPRSKGWVC-NH2
For the molecule B1, the “EC50 (nM), ferroportin internalization/degradation assay” value in assay [1] was more than 1000 nM.

B2: Hy-DTHFPCKIF-NH2 (peptide)
peptide: H-DTHFPCKIF-NH2
Regarding B2, in assay [1], the “percent at the stated concentration, ferroportin internalization/degradation assay” value came to 9 % at 10 uM.

B3: Hy-DTHFPCQIF-NH2 (peptide)
peptide: H-DTHFPCQIF-NH2
As for B3, the “EC50 (nM), ferroportin internalization/degradation assay” value in assay [1] was more than 1000 nM.

B4: Hy-DTHFPCRIFGPRSRGWVCK-NH2 (peptide)
peptide: H-DTHFPCRIFGPRSRGWVCK-NH2
modifications: disulfide 6-18 (inferred)
Regarding B4, the “EC50 (nM), ferroportin internalization/degradation assay” value in assay [1] was more than 1000 nM.

B5: Hy-DTHFPCRIF-NH2 (peptide)
peptide: H-DTHFPCRIF-NH2
Regarding B5, the “EC50 (nM), ferroportin internalization/degradation assay” value in assay [1] is more than 1000 nM.

B6: Hy-DTHFPCRRF-NH2 (peptide)
peptide: H-DTHFPCRRF-NH2
Regarding B6, in assay [1], the “EC50 (nM), ferroportin internalization/degradation assay” value is more than 10000 nM.

B7: (isovaleric acid-DTHFPCIKF)2[Lys]K(iso-Glu-Palm)-NH2 (peptide)
peptide: DTHFPCIKF
modifications: N-terminal isovaleric acid on each subunit; the two subunits are joined at their C-termini through a [Lys] linker, which is followed by K(iso-Glu-Palm)-NH2
Consider B7, for which the “EC50 (nM) (n > 3), ferroportin internalization/degradation assay” value in assay [2] and in assay [3] was 14 nM each time.

B8: Hy-DTHFPCLF-NH2 (peptide)
peptide: H-DTHFPCLF-NH2
On to B8, for which the “percent at the stated concentration, ferroportin internalization/degradation assay” value in assay [1] is 39 % at 1 uM.

B9: Hy-DTHFPCIFGPRSKGWVC-NH2 (peptide)
peptide: H-DTHFPCIFGPRSKGWVC-NH2
modifications: disulfide 6-17 (inferred)
Take B9: the “EC50 (nM), ferroportin internalization/degradation assay” value in assay [1] is more than 1000 nM.

B10: [IDA]-THF-[bhPro]-CRR-[bhPhe]GPRSKGWVC-NH2 (peptide)
peptide: [IDA]THF[β3hP]CRR[β3hF]GPRSKGWVC-NH2
modifications: disulfide 6-18 (inferred)
On to B10, for which the “EC50 (nM), ferroportin internalization/degradation assay” value in assay [1] was more than 1000 nM.

B11: Hy-DTHFPCEIF-NH2 (peptide)
peptide: H-DTHFPCEIF-NH2
B11: the “EC50 (nM), ferroportin internalization/degradation assay” value in assay [1] is more than 1000 nM.

B12: (isobutyric acid-DTHFPCIKF)2[Lys]K(iso-Glu-Palm)-NH2 (peptide)
peptide: DTHFPCIKF
modifications: N-terminal isobutyric acid on each subunit; the two subunits are joined at their C-termini through a [Lys] linker, which is followed by K(iso-Glu-Palm)-NH2
In the case of B12, the “EC50 (nM) (n > 3), ferroportin internalization/degradation assay” value in assay [2] and in assay [3] was 24 nM in each case.

B13: (Isovaleric acid-DTHFPCIKF)2[Lys]-Lys(Palm)-NH2 (peptide)
peptide: DTHFPCIKF
modifications: N-terminal isovaleric acid on each subunit; the two subunits are joined at their C-termini through a [Lys] linker, which is followed by Lys(Palm)-NH2
With B13, the “EC50 (nM) (n > 3), ferroportin internalization/degradation assay” value in assay [2] worked out at 16 nM.

B14: Hy-DTHFPCRIF-NH2 (peptide)
peptide: H-DTHFPCRIF-NH2
As for B14, the “percent at the stated concentration, ferroportin internalization/degradation assay” value in assay [1] was 31 % at 10 uM.

B15: Hy-DTHFPCRF-NH2 (peptide)
peptide: H-DTHFPCRF-NH2
With B15, the “percent at the stated concentration, ferroportin internalization/degradation assay” value in assay [1] was found to be 31 % at 10 uM.

B16: Hy-[pGlu]-THFPCRKF-NH2 (peptide)
peptide: [pGlu]THFPCRKF-NH2
SMILES: C[C@@H](O)[C@H](NC(=O)[C@@H]1CCC(=O)N1)C(=O)N[C@@H](Cc1c[nH]cn1)C(=O)N[C@@H](Cc1ccccc1)C(=O)N1CCC[C@H]1C(=O)N[C@@H](CS)C(=O)N[C@@H](CCCNC(=N)N)C(=O)N[C@@H](CCCCN)C(=O)N[C@@H](Cc1ccccc1)C(N)=O
For B16, in assay [1], the “EC50 (nM), ferroportin internalization/degradation assay” value was more than 1000 nM.

B17: Hy-DTHFPCLIF-NH2 (peptide)
peptide: H-DTHFPCLIF-NH2
For B17, the “EC50 (nM), ferroportin internalization/degradation assay” value in assay [1] is more than 10000 nM.

B18: Isovaleric acid-DTHFPCRRFGPRSKGWVCK-NH2 (peptide)
peptide: Isovaleryl-DTHFPCRRFGPRSKGWVCK-NH2
modifications: disulfide 6-18 (inferred)
Take B18: the “EC50 (nM), ferroportin internalization/degradation assay” value in assay [1] is more than 1000 nM.

These data come from patent publication US20170313754A1 (PROTAGONIST THERAPEUTICS, published 2017).
